Reference: patent US20240116985A1 (published 2024)
Each block holds one binder with its values, some of them ahead of it. Starred links: 1 amine or outer side, 2 acyl side, 3 side chain; linkers in the order of their positions; H or OH if unused. Positions of bridges follow the written chain, without caps; N, C: chain ends. Non-standard residues stand in square brackets, D forms with d. Primed or numbered codes have the meaning given here. *: point of attachment. (CCpCO2H)TriAzDap = (S)-1-(1-(2-amino-2-carboxyethyl)-1H-1,2,3-triazol-4-yl)cyclopropane-1-carboxylic acid, O=C([C@H](Cn1cc(C2(C(=O)[*:3])CC2)nn1)N[*:1])[*:2]; PyrS2″ = (S)-3-amino-1-((pent-4-en-1-yloxy)carbonyl)pyrrolidine-3-carboxylic acid (stapling residue), C=CCCCOC(=O)N1CC[C@@](N[*:1])(C(=O)[*:2])C1; B5(16) = 2-amino-2-(pent-4-en-1-yl)hept-6-enoic acid = 2,2-bis(4-pentenyl)glycine (stitching residue), C=CCCCC(CCCC=C)(N[*:1])C(=O)[*:2]; B5(23) = 2-amino-2-(pent-4-en-1-yl)hept-6-enoic acid (2,2-bis(4-pentenyl)glycine), stitching residue, C=CCCCC(CCCC=C)(N[*:1])C(=O)[*:2]; B5(5) = 2,2-bis(4-pentenyl)glycine, 2-amino-2-(pent-4-en-1-yl)hept-6-enoic acid (stitching residue), C=CCCCC(CCCC=C)(N[*:1])C(=O)[*:2]; Phe(2-Cl) = N[C@@H](Cc1ccccc1Cl)C(=O)O; Bta = N[C@@H](Cc1csc2ccccc12)C(=O)O; αAllylPro = C=CC[C@@]1(C(=O)O)CCCN1; tBuAla = CC(C)(C)C[C@H](N)C(=O)O; 3Thi = N[C@@H](Cc1ccsc1)C(=O)O; S8 = C=CCCCCCC[C@](C)(N)C(=O)O; Ms = CS(=O)(=O)*

Columns and labels:
[1] = biological target: T1, B-cat-Halo (beta-catenin HaloTag NanoBRET construct expressed in HEK293 cells) (UniProt P35222 1-781, HaloTag labelled with HaloTag NanoBRET 618 Ligand); assay: cell-based or functional assay
T1 sequence (looked up): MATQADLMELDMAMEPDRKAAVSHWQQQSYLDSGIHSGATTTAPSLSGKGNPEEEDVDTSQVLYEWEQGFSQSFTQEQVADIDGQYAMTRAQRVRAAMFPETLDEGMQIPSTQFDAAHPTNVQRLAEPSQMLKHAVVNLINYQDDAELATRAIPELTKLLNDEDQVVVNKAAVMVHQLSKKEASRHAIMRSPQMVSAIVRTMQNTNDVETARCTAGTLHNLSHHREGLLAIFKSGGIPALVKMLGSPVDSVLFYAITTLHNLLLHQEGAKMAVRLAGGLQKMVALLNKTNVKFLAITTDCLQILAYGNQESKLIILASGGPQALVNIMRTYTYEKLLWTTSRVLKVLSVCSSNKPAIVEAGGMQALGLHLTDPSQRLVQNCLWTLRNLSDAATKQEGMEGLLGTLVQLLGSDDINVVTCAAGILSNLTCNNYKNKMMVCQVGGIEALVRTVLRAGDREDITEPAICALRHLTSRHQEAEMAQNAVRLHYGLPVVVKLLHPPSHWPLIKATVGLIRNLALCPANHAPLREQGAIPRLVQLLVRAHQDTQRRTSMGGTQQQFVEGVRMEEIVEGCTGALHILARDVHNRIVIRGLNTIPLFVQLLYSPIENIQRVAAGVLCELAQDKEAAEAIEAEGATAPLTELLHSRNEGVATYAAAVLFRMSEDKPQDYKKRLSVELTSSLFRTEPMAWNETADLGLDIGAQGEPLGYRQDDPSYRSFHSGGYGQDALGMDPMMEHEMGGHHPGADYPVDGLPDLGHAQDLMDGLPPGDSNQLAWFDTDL

[2] = biological target: T2, full-length beta-Catenin (Uniprot ID P35222) (Homo sapiens (Human), UniProt P35222 2-781); assay: fluorescence polarization competition; 10 nM full-length beta-catenin + 10 nM 5FAM-TCF4(10-53) probe, peptide titrated
T2 construct: also called bCat; B-Catenin
T2 sequence: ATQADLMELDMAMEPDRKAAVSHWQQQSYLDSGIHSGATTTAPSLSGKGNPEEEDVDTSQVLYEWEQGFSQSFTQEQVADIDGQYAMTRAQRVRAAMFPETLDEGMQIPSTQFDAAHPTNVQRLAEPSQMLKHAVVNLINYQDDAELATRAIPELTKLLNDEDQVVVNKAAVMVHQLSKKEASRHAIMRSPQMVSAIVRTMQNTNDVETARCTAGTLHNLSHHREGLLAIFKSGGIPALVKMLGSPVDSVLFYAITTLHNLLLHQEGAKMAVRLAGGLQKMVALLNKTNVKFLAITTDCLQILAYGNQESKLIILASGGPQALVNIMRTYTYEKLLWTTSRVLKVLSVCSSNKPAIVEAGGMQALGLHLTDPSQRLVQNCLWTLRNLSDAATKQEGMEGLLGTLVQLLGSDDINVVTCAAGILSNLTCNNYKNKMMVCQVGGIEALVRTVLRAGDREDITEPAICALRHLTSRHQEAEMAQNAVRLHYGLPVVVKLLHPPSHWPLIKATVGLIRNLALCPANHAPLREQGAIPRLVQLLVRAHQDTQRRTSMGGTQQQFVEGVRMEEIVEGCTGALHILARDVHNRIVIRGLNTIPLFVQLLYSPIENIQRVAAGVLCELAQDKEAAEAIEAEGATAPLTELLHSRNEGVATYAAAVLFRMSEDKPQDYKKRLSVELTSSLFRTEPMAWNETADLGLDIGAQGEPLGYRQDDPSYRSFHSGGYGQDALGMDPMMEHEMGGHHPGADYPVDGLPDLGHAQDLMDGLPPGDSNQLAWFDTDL
Method: (§1) The plate was incubated protected from light for 60 minutes at 20° C. prior to read. Reads were performed on a CLARIOstar plate reader (BMG Labtech) in duplicate, and data were fitted to a 1:1 binding model with hill slope using an in-house script. All provided concentrations are final concentrations.

[3] = biological target: T3, beta-catenin in DLD1 TCF/LEF luciferase reporter cells (UniProt P35222 1-781); assay: cell-based or functional assay
T3 sequence (looked up): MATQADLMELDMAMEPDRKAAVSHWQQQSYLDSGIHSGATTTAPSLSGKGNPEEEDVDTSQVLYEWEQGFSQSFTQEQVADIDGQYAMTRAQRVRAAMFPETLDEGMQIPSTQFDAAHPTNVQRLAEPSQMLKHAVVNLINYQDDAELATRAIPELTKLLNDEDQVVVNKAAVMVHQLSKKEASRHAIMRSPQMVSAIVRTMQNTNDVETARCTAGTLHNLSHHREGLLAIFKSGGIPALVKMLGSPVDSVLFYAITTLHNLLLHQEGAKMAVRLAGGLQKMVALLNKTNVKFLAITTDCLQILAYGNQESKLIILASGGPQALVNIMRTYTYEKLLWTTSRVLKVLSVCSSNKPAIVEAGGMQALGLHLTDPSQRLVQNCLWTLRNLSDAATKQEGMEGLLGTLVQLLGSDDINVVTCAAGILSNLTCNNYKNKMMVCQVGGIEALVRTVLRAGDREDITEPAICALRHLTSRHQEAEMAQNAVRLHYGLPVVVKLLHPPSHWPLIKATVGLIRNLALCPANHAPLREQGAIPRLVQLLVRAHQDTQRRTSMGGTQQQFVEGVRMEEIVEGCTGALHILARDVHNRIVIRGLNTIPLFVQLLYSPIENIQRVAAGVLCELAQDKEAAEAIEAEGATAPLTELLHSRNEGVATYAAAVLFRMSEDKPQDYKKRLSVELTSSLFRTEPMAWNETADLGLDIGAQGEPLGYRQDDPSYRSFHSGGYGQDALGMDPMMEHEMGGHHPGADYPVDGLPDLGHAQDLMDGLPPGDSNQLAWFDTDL

[4] = biological target: B-cat-Halo (beta-catenin HaloTag construct expressed in HEK293 cells) (UniProt P35222 1-781); assay: cell-based or functional assay
[5] = biological target: T4, B-cat-Halo (beta-catenin HaloTag fusion expressed in HEK293 cells) (Homo sapiens (Human), UniProt P35222 1-781); assay: cell-based or functional assay
T4 sequence: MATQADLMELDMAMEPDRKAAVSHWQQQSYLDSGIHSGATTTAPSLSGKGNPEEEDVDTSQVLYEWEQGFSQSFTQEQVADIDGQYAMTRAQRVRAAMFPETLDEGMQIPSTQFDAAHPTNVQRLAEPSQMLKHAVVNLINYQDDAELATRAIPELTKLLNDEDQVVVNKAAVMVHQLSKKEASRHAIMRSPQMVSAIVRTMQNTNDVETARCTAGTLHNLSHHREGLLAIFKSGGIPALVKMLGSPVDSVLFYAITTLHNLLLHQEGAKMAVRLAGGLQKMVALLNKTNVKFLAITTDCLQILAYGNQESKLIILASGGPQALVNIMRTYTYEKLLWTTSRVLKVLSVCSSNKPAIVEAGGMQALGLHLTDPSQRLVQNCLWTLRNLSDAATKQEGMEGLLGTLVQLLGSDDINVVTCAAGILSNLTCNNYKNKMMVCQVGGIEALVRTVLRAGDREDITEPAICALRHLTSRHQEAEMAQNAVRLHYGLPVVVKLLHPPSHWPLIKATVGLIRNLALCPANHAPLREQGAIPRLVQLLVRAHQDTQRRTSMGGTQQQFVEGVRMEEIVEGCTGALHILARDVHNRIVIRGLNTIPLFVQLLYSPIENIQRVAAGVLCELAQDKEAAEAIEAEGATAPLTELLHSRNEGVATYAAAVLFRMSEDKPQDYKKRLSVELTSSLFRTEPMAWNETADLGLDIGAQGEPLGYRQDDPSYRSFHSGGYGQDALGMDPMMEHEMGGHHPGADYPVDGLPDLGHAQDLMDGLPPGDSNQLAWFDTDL

[6] = biological target: T5, beta-catenin in DLD1 TCF/LEF luciferase reporter cells (UniProt P35222 1-781); assay: cell-based or functional assay; remark: listed apart in the source
T5 sequence (looked up): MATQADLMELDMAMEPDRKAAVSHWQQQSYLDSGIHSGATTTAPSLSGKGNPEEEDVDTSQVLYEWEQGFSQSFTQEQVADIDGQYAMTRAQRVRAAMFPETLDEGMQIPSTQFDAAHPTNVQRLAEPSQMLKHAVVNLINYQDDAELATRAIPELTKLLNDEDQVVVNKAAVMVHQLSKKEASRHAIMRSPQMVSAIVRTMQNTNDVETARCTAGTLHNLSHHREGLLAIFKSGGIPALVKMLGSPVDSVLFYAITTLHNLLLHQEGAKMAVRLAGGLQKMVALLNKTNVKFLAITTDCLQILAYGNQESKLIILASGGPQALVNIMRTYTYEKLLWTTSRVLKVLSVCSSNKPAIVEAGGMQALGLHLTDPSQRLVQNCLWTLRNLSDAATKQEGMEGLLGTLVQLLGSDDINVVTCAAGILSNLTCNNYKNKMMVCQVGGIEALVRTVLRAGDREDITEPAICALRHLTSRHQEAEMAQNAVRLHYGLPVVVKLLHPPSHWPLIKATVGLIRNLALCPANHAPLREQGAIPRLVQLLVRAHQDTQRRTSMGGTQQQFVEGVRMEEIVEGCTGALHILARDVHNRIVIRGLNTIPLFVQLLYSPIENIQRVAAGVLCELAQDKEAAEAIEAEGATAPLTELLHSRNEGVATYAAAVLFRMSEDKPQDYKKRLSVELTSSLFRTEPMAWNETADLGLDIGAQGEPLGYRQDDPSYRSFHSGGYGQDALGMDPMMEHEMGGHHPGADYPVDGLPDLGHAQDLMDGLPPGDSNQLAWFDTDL

[7] = biological target: T6, full-length beta-Catenin (Uniprot ID P35222) (Homo sapiens (Human), UniProt P35222 2-781); assay: fluorescence polarization competition; full-length beta-catenin + 5FAM-TCF4(10-53) probe; peptide titrated
T6 construct: The fluorescence polarization protocol says only 'full-length'; also called bCat; B-Catenin
T6 sequence: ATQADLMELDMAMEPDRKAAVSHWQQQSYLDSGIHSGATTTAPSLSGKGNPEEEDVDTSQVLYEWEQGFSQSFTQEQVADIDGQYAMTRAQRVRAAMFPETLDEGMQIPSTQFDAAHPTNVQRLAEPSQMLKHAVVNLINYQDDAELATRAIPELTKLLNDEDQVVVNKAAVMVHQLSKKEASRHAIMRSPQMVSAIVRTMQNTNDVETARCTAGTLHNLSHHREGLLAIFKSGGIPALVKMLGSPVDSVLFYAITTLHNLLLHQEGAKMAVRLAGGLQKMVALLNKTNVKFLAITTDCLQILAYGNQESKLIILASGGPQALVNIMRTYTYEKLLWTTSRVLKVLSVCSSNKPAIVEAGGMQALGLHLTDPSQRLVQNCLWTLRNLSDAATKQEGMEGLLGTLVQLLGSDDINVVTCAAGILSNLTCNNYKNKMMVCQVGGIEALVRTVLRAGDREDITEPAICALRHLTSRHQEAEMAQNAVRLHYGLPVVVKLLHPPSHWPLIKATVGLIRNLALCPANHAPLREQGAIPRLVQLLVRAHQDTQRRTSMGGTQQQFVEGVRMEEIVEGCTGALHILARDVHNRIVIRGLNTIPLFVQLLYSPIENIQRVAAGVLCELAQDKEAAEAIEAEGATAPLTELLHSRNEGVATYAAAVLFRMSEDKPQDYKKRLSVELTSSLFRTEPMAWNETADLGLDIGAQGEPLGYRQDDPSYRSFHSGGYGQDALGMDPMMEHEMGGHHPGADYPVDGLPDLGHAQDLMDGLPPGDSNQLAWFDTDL
Method: as §1

B1: I-407 (peptide)
peptide: Ac-[αAllylPro]DI[B5(23)]DEAAFQ[S8]F[Bta]Q-NH2
modifications: staple 1-4, 4-11
notes: Stapled (stitched) peptide
NanoBRET % inh @ 10 uM [1]: 55.1%
EC50 [2]: 0.03 µM

B3: I-2445 (peptide)
peptide: Ac-[αAllylPro]D[tBuAla][B5(5)]D[(CCpCO2H)TriAzDap]AAFL[PyrS2″][3Thi][Bta]Q-NH2
modifications: staple 1-4, 4-11; not fully specified; printed as Ac-PL3-Asp-Npg-B5-Asp-[CCpCO2H]TriAzDap-Ala-Ala-Phe-Leu-PyrS2-3Thi-BztA-Gln-NH2
NanoBRET Abs IC50 [5]: 17.1 µM
DLD1 4% Abs IC50 [6]: 9.5 µM

Continued, values first:

DLD1 4% Abs IC50 [3]: 7.8 µM
NanoBRET Abs IC50 [4]: 9.6 µM
B2: I-1019: Ac-PL3-Asp-Npg-B5-Asp-Asp-Ala-Ala-Phe-Ser-PyrS2-2C1F-BztA-Ser-NH2 (peptide)
peptide: Ac-[αAllylPro]D[tBuAla][B5(16)]DDAAFS[PyrS2″][Phe(2-Cl)][Bta]S-NH2
modifications: staple 1-4, 4-11; not fully specified; printed as Ac-PL3-Asp-Npg-B5-Asp-Asp-Ala-Ala-Phe-Ser-PyrS2-2C1F-BztA-Ser-NH2

EC50 [7]: 0.073 µM
B4: I-710 (peptide)
peptide: Ms-[αAllylPro]DI[B5(5)]DEAAFQ[S8]F[Bta]Q-NH2
modifications: staple 1-4, 4-11
notes: Stapled peptide composition; also called MeSO2-PL3-Asp-Ile-B5-Asp-Glu-Ala-Ala-Phe-Gln-S8-Phe-BztA-Gln-NH2
